B1: AIPP3-BAH domain (residues 112-279) (domain or fragment)
chain: GKGKGKRTHFNQFAYDGNTYDLEVPVLLVPEDKSQKPYVAIIKDITQTKDGSMMILGQWFYRPEEAEKRGGGNWQSSDTRELFYSFHRDEVPAESVMHRCVVYFVPAHKQLPKRKNNPGFIVRKVYDTVEKKLWKLTDKDYEDSKQREIDVLVKKTMNVLGDLPDLES
B5: PAIPP2-PHD finger (domain or fragment)
chain: VKVCDICGDAGREDLLAICSGCSDGAEHTYCMREMLDEVPEGDWLCEECAEE

Where no end group is shown, it is not given here. Me3 = trimethyl-lysine; Me2 = dimethyl-lysine

Holding throughout (assay): ITC
(In general: Isothermal titration calorimetry measures the heat released or taken up as one component is titrated into another.)

The target of one experiment is T1, H3K27me1 (Arabidopsis thaliana, also: biotinylated in pull-down).
T1 chain: LATKAARK(Me)SAPATGGVKK

In the next experiment the target is T2, H3K27me2 (Arabidopsis thaliana, also: biotinylated in pull-down).
T2 chain: LATKAARK(Me2)SAPATGGVKK

In experiment [1] the target is B1.
The experiment “PAIPP2-PHD finger” has as its target B5.
A further experiment concerns the target T3, H3K4me2 (Arabidopsis thaliana).
T3 chain: ARTK(Me2)QTARKSTGGKA

A further experiment addresses T4, H3K4me1 (Arabidopsis thaliana).
T4 chain: ARTK(Me)QTARKSTGGKA

In a further experiment the target is T5, AIPP3-BAH domain W170A (Arabidopsis, UniProt Q8RXT5 112-279, W170A).
T5 sequence: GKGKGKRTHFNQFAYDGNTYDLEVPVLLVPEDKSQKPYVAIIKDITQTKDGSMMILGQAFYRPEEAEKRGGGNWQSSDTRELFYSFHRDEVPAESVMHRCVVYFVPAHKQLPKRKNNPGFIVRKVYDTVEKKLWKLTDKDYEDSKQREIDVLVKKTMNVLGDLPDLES

A further experiment deals with T6, AIPP3-BAH domain H198A (Arabidopsis, UniProt Q8RXT5 112-279, H198A).
T6 sequence: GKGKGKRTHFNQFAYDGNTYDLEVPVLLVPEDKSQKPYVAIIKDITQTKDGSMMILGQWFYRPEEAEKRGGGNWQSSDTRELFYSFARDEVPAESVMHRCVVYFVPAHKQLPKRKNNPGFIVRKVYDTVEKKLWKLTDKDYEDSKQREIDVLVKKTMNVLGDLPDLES

In a further experiment the target is T7, AIPP3-BAH domain D200A (Arabidopsis, UniProt Q8RXT5 112-279, D200A).
T7 sequence: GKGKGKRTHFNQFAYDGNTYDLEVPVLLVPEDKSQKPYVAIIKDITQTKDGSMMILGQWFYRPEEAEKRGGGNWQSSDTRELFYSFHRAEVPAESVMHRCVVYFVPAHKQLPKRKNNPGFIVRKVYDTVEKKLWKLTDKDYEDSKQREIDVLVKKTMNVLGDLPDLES

The target in a further experiment is T8, AIPP3-BAH domain Y149A (Arabidopsis, UniProt Q8RXT5 112-279, Y149A).
T8 sequence: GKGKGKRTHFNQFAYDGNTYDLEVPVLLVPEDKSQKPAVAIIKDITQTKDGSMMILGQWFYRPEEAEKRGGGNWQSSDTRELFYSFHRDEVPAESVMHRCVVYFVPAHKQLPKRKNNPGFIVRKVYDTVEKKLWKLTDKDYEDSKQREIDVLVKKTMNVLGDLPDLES

For the molecule B1, the figures for the Kd with H3K27me1 and in the experiment with H3K27me2 were 24.2 µM and 17.1 µM, respectively.

B2: H3K9me2 peptide (peptide)
chain: ARTKQTARKSTGGKA
modifications: dimethyl-lysine at K9
As for B2, in experiment [1], the Kd – broadly, the concentration at which binding is half-saturated – turned out to be 17.3 µM. This counts as double-digit micromolar.

B3: H3K4me3 peptide (peptide)
chain: ARTK(Me3)QTARKSTGGKA
B3 displayed a Kd in [1] of 24.3 µM.

B4: unmodified H3K4 peptide (peptide)
chain: ARTKQTARKSTGGKA
modifications: zinc-bound PHD finger; limits from the UniProt ZN_FING feature, construct limits not printed unmodified Lys4; H3 1-15 assumed by convention
B4 yielded a Kd with PAIPP2-PHD finger of 18.6 µM.
Take B5: the Kd worked out at 30 µM with H3K4me2 and 22.1 µM with H3K4me1.

B6: H3K27me3 peptide (peptide)
chain: LATKAARK(Me3)SAPATGGVKK
B6: the Kd with AIPP3-BAH domain W170A is 28.5 µM; with AIPP3-BAH domain H198A, 17.4 µM; with AIPP3-BAH domain D200A it was 34.1 µM; with AIPP3-BAH domain Y149A, 19.8 µM; in experiment [1], 7.4 µM.
